Source: article PMC2954053

How the values were obtained:
BTF = BTF (UniProt Q9NYF8); test: anti-Flag co-IP, BTF blot; settings: reference: wild type Flag-PSF; sites T687
TRAP150 = TRAP150 (UniProt Q9Y2W1); test: anti-Flag co-IP, TRAP150 blot; settings: reference: wild type Flag-PSF; sites T687

binding against the reference (BTF): weaker | binding against the reference (TRAP150): weaker
Substance: PSF (from UniProt P23246) T687A
